The source of these data is publication PMC3786598 (Microscopy and microanalysis : the official journal of …, 2012).

This data set concerns the molecule itself. The experiment in a line: single-molecule stepwise photobleaching.

B1: prestin-eGFP (natural protein, UniProt Q9JKQ2 1-744, looked up)
chain: MDHAEENEIPVATQKYHVERPIFSHPVLQERLHVKDKVSESIGDKLKQAFTCTPKKIRNIIYMFLPITKWLPAYKFKEYVLGDLVSGISTGVLQLPQGLAFAMLAAVPPVFGLYSSFYPVIMYCFFGTSRHISIGPFAVISLMIGGVAVRLVPDDIVIPGGVNATNGTEARDALRVKVAMSVTLLSGIIQFCLGVCRFGFVAIYLTEPLVRGFTTAAAVHVFTSMLKYLFGVKTKRYSGIFSVVYSTVAVLQNVKNLNVCSLGVGLMVFGLLLGGKEFNERFKEKLPAPIPLEFFAVVMGTGISAGFNLHESYSVDVVGTLPLGLLPPANPDTSLFHLVYVDAIAIAIVGFSVTISMAKTLANKHGYQVDGNQELIALGICNSIGSLFQTFSISCSLSRSLVQEGTGGKTQLAGCLASLMILLVILATGFLFESLPQAVLSAIVIVNLKGMFMQFSDLPFFWRTSKIELTIWLTTFVSSLFLGLDYGLITAVIIALLTVIYRTQSPSYKVLGQLPDTDVYIDIDAYEEVKEIPGIKIFQINAPIYYANSDLYSNALKRKTGVNPALIMGARRKAMRKYAKEVGNANIANAAVVKVDGEVDGENATKPEEEDDEVKYPPIVIKTTFPEELQRFMPQTENVHTIILDFTQVNFIDSVGVKTLAVMVKEYGDVGIYVYLAGCSPQVVNDLTRNRFFENPALKELLFHSIHDAVLGSHVREAMAEQEASAPPPQDDMEPNATPTTPEA
By stoichiometry N is commonly meant the number of molecules, sites or subunits per partner or assembly. As to B1, the “stoichiometry N” value amounted to 4.
